Test results from article PMC9259645, “Discovery of archaeal fusexins homologous to eukaryotic HAP2/GCS1 gamete fusion proteins” (Nature Communications, 2022).

Target: the molecule itself
Test: crystal structure; X-ray, 2.3 Å, space group C2, three-fold non-crystallographic symmetry; crystals grown at 20 °C from purified Fsx1E (in 20 mM Na-HEPES pH 7.8, 2.5 M NaCl) mixed with 23% PEG 4000, 0.1 M Tris-HCl pH 8.5, 0.2 M CaCl2

B1: Fusexin1 ectodomain (Fsx1E), residues D25-S535 with T369C, crystallised construct (domain or fragment, UniProt C0HM55 25-535, looked up)
chain: DSITYNSGTSEFFDGDVFAIEVTADQSTDEIDIYLGASELSEKTDGEVNQDLSIEFTHQDSKLKYSTSTSDELRDIVTLTTYYEDGFDTEQDAIDAIKSDCYDLNQNGNGSGRYSRYYSVTSPVYDYEIYCFQKNEKLATPAYIDNPDEIFTAKAELQAGDKTIQSATLSNGDAGDGTVTDLGDSKISWNGNLDLGASEPENSRVIALYSNDFENGWRIGNKQSYEDYKTFIGGGDAYDLLIDWQDGTYTASEVEDELVNTDANQAVEEASSSTTDLVNAKVKDSSLDTGSFVYDTPELLSYPSFTVYVDAGENGYIEVTKPTGDPDIISTSSTEIKEGDEGTVCATVENVGDGEGEFSGRLSSCGEGFSIVDDQNTKNVGAGESVTYSFDVAFSSVSSESKEISGSCTFEVNGVESSDSTSVSVTGIQQSECNPGDQRREKNENDRWEIYTCQDNGLTYEYDVTCAEDEKAVAQGDNQFSCEKQDDDSGGGDNTGSDSGLFSNLFGGSGS
notes: Fusexin1 (Fsx1), archaeal fusexin from a metagenomic ORF of a hypersaline environment (IMG genome 3300000868, scaffold JGI12330J12834_1000008, ORF 8); extracellular region, residues D25-S535; Expressed from pLJ6 (derived from pHLsec3) behind the chicken Crypα signal peptide, in frame with a 3' 8xHis tag; T369C was introduced to help heavy atom derivatisation; Homotrimer in the crystal; also …
  stoichiometry N: 3
